Results taken from US20190023807A1 (CRESCENDO BIOLOGICS, published 2019).

Tests used:
[1] = molecular target: T1, human PSMA (prostate specific membrane antigen), full-length, expressed on cells (human, UniProt Q04609 1-750); assay: cell-based or functional assay
[2] = molecular target: T1, human PSMA (prostate specific membrane …); assay: cell-based or functional assay; remark: listed apart in the source

T1 sequence (Q04609 whole entry): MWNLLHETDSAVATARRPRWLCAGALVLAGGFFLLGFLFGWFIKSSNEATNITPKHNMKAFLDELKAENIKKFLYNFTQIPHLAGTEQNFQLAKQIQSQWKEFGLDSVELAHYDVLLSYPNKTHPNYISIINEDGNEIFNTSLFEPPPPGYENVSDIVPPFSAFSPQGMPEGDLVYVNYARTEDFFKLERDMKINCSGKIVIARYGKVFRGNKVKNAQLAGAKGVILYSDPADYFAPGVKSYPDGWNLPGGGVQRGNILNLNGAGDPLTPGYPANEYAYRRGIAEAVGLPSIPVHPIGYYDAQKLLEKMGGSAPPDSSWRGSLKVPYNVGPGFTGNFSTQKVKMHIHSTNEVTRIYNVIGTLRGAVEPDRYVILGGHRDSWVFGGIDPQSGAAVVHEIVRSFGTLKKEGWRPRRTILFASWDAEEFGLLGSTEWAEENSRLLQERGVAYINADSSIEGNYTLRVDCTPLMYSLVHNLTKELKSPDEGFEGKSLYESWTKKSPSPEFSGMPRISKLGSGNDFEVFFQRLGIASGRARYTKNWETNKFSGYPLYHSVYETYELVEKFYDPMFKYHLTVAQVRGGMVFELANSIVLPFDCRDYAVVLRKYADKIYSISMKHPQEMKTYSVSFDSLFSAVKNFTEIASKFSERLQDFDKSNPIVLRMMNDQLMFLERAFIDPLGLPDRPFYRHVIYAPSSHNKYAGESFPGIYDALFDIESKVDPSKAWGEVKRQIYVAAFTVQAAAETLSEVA

B1: HiPEG D-His6 val-cit-PAB-MMAE (other)
VH: EVQLLESGGGLVQPGGSLRLSCAASGFRISDEDMGWVRQAPGKGLEWVSSIYGPSGSTYYADSVKGRFTISRDNSKNTLYLQMNSLRAEDTAVYYCASALEPLSEPLGFWGQGTLVTVSSAAAHHHHHH
modifications: HiPEG val-cit-PAB-MMAE attached via the C-terminal His6 tag
[1]
  PSMA-DU145 cytotoxicity assay (72 h), IC50: > 100 nM
  PSMA-DU145 cytotoxicity assay (72 h), IC50 (toxin): > 100 nM
[2]
  cytotoxicity on PSMA-DU145, 48 h, Mean IC50: > 300 nM
